# Results as given in article PMC2063867 (The Journal of Cell Biology, 2006).
# B1: phospho–S273-paxillin (untagged WT-paxillin synthesized in vitro and incubated with CA-myc-PAK1) (natural protein)
# chain: not shown
# modifications: phosphoserine at 273
# B2: FLAG-GIT1 (expressed in CHO-K1 cells) (natural protein)
# chain: MSRKGPRAEVCADCSAPDPGWASISRGVLVCDECCSVHRSLGRHISIVKHLRHSAWPPTLLQMVHTLASNGANSIWEHSLLDPAQVQSGRRKANPQDKVHPIKSEFIRAKYQMLAFVHKLPCRDDDGVTAKDLSKQLHSSVRTGNLETCLRLLSLGAQANFFHPEKGTTPLHVAAKAGQTLQAELLVVYGADPGSPDVNGRTPIDYARQAGHHELAERLVECQYELTDRLAFYLCGRKPDHKNGHYIIPQMADSLDLSELAKAAKKKLQALSNRLFEELAMDVYDEVDRRENDAVWLATQNHSTLVTERSAVPFLPVNPEYSATRNQGRQKLARFNAREFATLIIDILSEAKRRQQGKSLSSPTDNLELSLRSQSDLDDQHDYDSVASDEDTDQEPLRSTGATRSNRARSMDSSDLSDGAVTLQEYLELKKALATSEAKVQQLMKVNSSLSDELRRLQREIHKLQAENLQLRQPPGPVPTPPLPSERAEHTPMAPGGSTHRRDRQAFSMYEPGSALKPFGGPPGDELTTRLQPFHSTELEDDAIYSVHVPAGLYRIRKGVSASAVPFTPSSPLLSCSQEGSRHTSKLSRHGSGADSDYENTQSGDPLLGLEGKRFLELGKEEDFHPELESLDGDLDPGLPSTEDVILKTEQVTKNIQELLRAAQEFKHDSFVPCSEKIHLAVTEMASLFPKRPALEPVRSSLRLLNASAYRLQSECRKTVPPEPGAPVDFQLLTQQVIQCAYDIAKAAKQLVTITTREKKQ
# Legend:
# Assay in all cases: co-IP
# [1] = biological target: T1, FLAG-GIT1 (synthesized in vitro) (UniProt Q9Y2X7 1-761)
# T1 sequence: B2 chain
# S273A-paxillin-GFP = S273A-paxillin-GFP (UniProt P49024 1-559, S273A)
# S273D-paxillin-GFP = S273D-paxillin-GFP (UniProt P49024 1-559, S273D)
# S273D-paxillin-GFP, sequence (P49024 whole entry S273D): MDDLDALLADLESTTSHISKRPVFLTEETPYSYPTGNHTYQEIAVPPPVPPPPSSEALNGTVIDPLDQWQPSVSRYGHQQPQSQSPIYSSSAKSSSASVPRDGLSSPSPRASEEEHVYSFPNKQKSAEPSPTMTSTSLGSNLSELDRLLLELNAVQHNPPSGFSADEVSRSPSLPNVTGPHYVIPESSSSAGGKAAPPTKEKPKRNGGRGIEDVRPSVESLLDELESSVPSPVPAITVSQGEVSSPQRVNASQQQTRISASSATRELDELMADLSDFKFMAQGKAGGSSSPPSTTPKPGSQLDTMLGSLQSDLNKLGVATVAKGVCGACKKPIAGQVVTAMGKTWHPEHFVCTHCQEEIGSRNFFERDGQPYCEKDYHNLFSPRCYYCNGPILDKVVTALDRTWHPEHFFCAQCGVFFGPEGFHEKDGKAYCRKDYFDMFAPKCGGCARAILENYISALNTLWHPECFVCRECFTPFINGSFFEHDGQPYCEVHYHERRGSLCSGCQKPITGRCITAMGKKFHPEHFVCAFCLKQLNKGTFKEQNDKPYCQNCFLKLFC
# S273A-paxillin-GFP, sequence (P49024 whole entry S273A): as the sequence (P49024 whole entry S273D) above, with D273A counted along it
binder,measurement,setting,value
B1,fold increase of phospho–S273-paxillin bound to FLAG-GIT1 with CA- versus KD-PAK,[1],7 fold
B2,fold decrease of GIT1 binding against WT-paxillin,S273A-paxillin-GFP,2 fold
same,fold increase of GIT1 binding against WT-paxillin,S273D-paxillin-GFP,~3 fold
